Reference: patent US9611303B2, “Modified biotin-binding protein” (Japan Tobacco Inc., priority 2009, dated 2017)
Where “and” joins values, the source holds several entries; their conditions need not be identical. Equal entries are not always repeated. Entries after “also recorded” stand apart in the source; their conditions may differ.

B1: TM2 W108K: TM2 in which the 108th tryptophan was replaced with lysine (protein)
chain: MSDVQSSLTGTWYNELNSKMELTANKDGTLTGKYLSKVGDVYVPYPLSGRYNLQPPAGQGVALGWAVSWENSKIHSATTWSGQFFSESSPVILTQWLLSSSTARGDVKESTLVGNDSFTKTAPTEQQIAHAQLHCRAPRLK
B2: TM2 W108E: TM2 in which the 108th tryptophan was replaced with glutamic acid (protein)
chain: MSDVQSSLTGTWYNELNSKMELTANKDGTLTGKYLSKVGDVYVPYPLSGRYNLQPPAGQGVALGWAVSWENSKIHSATTWSGQFFSESSPVILTQWLLSSSTARGDVEESTLVGNDSFTKTAPTEQQIAHAQLHCRAPRLK
B3: TM2 N14A: TM2 in which the 14th asparagine was replaced with alanine (protein)
chain: MSDVQSSLTGTWYAELNSKMELTANKDGTLTGKYLSKVGDVYVPYPLSGRYNLQPPAGQGVALGWAVSWENSKIHSATTWSGQFFSESSPVILTQWLLSSSTARGDVWESTLVGNDSFTKTAPTEQQIAHAQLHCRAPRLK
B4: TM2 A66R-V113R: TM2 with 66th alanine and 113th valine replaced with arginine (protein)
chain: MSDVQSSLTGTWYNELNSKMELTANKDGTLTGKYLSKVGDVYVPYPLSGRYNLQPPAGQGVALGWRVSWENSKIHSATTWSGQFFSESSPVILTQWLLSSSTARGDVWESTLRGNDSFTKTAPTEQQIAHAQLHCRAPRLK
B5: TM2 A66R: TM2 in which the 66th alanine was replaced with arginine (protein)
chain: MSDVQSSLTGTWYNELNSKMELTANKDGTLTGKYLSKVGDVYVPYPLSGRYNLQPPAGQGVALGWRVSWENSKIHSATTWSGQFFSESSPVILTQWLLSSSTARGDVWESTLVGNDSFTKTAPTEQQIAHAQLHCRAPRLK
B6: TM2 W69K: TM2 in which the 69th tryptophan was replaced with lysine (protein)
chain: MSDVQSSLTGTWYNELNSKMELTANKDGTLTGKYLSKVGDVYVPYPLSGRYNLQPPAGQGVALGWAVSKENSKIHSATTWSGQFFSESSPVILTQWLLSSSTARGDVWESTLVGNDSFTKTAPTEQQIAHAQLHCRAPRLK
B7: TM2 V113R: TM2 in which the 113th valine was replaced with arginine (protein)
chain: MSDVQSSLTGTWYNELNSKMELTANKDGTLTGKYLSKVGDVYVPYPLSGRYNLQPPAGQGVALGWAVSWENSKIHSATTWSGQFFSESSPVILTQWLLSSSTARGDVWESTLRGNDSFTKTAPTEQQIAHAQLHCRAPRLK
B8: TM2 L97T: TM2 in which the 97th leucine was replaced with threonine (protein)
chain: MSDVQSSLTGTWYNELNSKMELTANKDGTLTGKYLSKVGDVYVPYPLSGRYNLQPPAGQGVALGWAVSWENSKIHSATTWSGQFFSESSPVILTQWTLSSSTARGDVWESTLVGNDSFTKTAPTEQQIAHAQLHCRAPRLK
B9: TM2 A66R-L97T: TM2 double mutant A66R and L97T; not in the list of 30 forms, vector named in b302 (protein)
chain: MSDVQSSLTGTWYNELNSKMELTANKDGTLTGKYLSKVGDVYVPYPLSGRYNLQPPAGQGVALGWRVSWENSKIHSATTWSGQFFSESSPVILTQWTLSSSTARGDVWESTLVGNDSFTKTAPTEQQIAHAQLHCRAPRLK

Key:
[1] = Purification of LATM2 with biotin-agarose; assay type: binding; settings: for Recover rate (%) / Note (Biotin-agarose): binding at pH 7, recovery with 10 mM biotin; for Note (Biotin-agarose): FT = flow-through
Experimental: Purification with biotin-agarose (manufactured by Sigma-Aldrich Corp.) was performed by the following procedure. After induced expression of 25 mL of a culture solution of E. coli for each LATM2, the E. coli cells were suspended in 1.5 mL of a 100 mM potassium phosphate buffer (pH 7.0), and then sonicated. To the supernatant of the disrupted cells. 400 μL of biotin-agarose was added, which was followed by upside-down mixing for 1 hr. […]
In TM2 S36A-T78A-D116A, the E. coli cells were suspended in 1.5 mL of 50 mM CAPS (pH 12) containing 50 mM NaCl, and then sonicated. To the disrupted cells, 400 μL of biotin-agarose was added, which was followed by upside-down mixing for 1 hr. The column was sufficiently washed with 50 mM CAPS (pH 12) containing 500 mM NaCl, and elution was then performed with 1 mL of PBS (pH 7.4) containing 10 mM biotin.
In TM2 S36A-D116A, the E. coli cells were suspended in 1.5 mL of a 100 mM potassium phosphate buffer (pH 4.0), and then sonicated. To the pupernatant of the disrupted cells, 400 μL of biotin-agarose was added. Washing was performed with a 100 mM potassium phosphate buffer (pH 4) containing 500 mM NaCl, and elution was performed with 1 mL of PBS (pH 7) containing 10 mM biotin. Biotin binding to LATM2 that has been eluted with an excess amount of biotin was removed by dialysis with a 20 mM potassium phosphate buffer overnight.
(§1) The recovery rate in Table 2 was calculated by dividing the amount of LATM2 protein after purification by the amount of LATM2 protein before purification and was expressed by percent by multiplying the quotient by 100. The degree of purification was the ratio of the amount of LATM2 protein to the total amount of proteins in the purified fraction and was expressed by percent by multiplying the ratio by 100. The recovery rates and the degrees of purification in biotin-agarose were the results after binding at pH 7 and elution with an excess amount of biotin.

[2] = Subunit association by FPLC on Sephacryl S-100HR; assay type: physicochemical; settings: for Structure (identified by FPLC): Sephacryl S-100HR, 50 mM potassium phosphate, 500 mM NaCl; for Sephacryl (mL), elution peak position: tetramer 44 to 47 mL, dimer 51 to 54 mL, monomer 63 to 66 mL; for share present as monomer: of the total
Experimental: In order to analyze the subunit association conditions of LATM2, the molecular weight of each LATM2s was measured by FPLC. Sephacryl S-100HR (manufactured by GE Healthcare) was used as a column, a Gel Filtration Calibration Kit LMW (manufactured by GE Healthcare) was used as molecular weight markers, and 50 mM potassium phosphate containing 500 mM NaCl was used as a buffer.
The positions of the peaks of eluted tetramer were defined to be 44 to 47 mL after injection of WT-TM2 as a control. The peak of an eluted monomer appeared at around 63 to 66 mL and the peak of an eluted dimer appeared at around 51 to 54 mL, from result of loading the molecular weight markers.

[3] = Purification of LATM2 with 2-iminobiotin-agarose; assay type: binding; settings: for Recovery rate (%): Iminobiotin-agarose, binding at pH 12, elution with 50 mM NH4OAC (pH 4); for recovery rates compared with WT: purification with 2-iminobiotin-agarose; for Note (Iminobiotin-agarose): FT = column flow-through fraction
Experimental: LATM2 was purified through a column charged with 2-iminobiotin-agarose (manufactured by Sigma-Aldrich Corp.) in accordance with the method by Hofmann, et al., (1980). IPTG was added to 25 mL of a culture solution of E. coli transformed with each LATM2 in a final concentration of 1 mM to induce expression. The E. coli cells were collected by centrifugation, suspended in 1.5 mL of 50 mM CAPS (pH 12) containing 50 mM NaCl, and then sonicated. To the supernatant of the disrupted cells, 500 μL of 2-iminobiotin-agarose was added, which was then packed in a column. The column was sufficiently washed with 50 mM CAPS (pH 12) containing 500 mM NaCl, and elution was then performed with 50 mM NH4OAC (pH 4).
as §1

| Molecule | Recover rate (%) ([1]; Biotin-agarose) | Structure (identified by FPLC) [2] | Sephacryl (mL), elution peak position [2] | Recovery rate (%) [3] [%] | recovery rates compared with WT [3] | Note (Iminobiotin-agarose) [3] | binding to 2-iminobiotin-agarose [3] | also measured |
| --- | --- | --- | --- | --- | --- | --- | --- | --- |
| B1 | 95 | Tetramer | 45.14 mL | 30 | inferior to WT |  |  | share present as tetramer ([2]; FPLC): 100% |
| B2 | 95 | dimer; also recorded: tetramer, | 44.69 mL and 52.30, mL | 5 | inferior to WT | To FT |  | share present as dimer ([2]; FPLC): 67%; share present as tetramer ([2]; FPLC): 33% |
| B3 | 50 | Tetramer | 46.24 mL | 10 | inferior to WT |  |  |  |
| B4 | 0 |  |  | 0 |  | To FT | did not bind | binding to biotin-agarose [1]: did not bind; Note (Biotin-agarose) [1]: To FT |
| B5 | 50 |  |  | 0 |  | To FT | did not bind | Structure (identified by FPLC) ([2]; monomer peak): monomer; Structure (identified by FPLC) ([2]; tetramer peak): tetramer,; share present as monomer ([2]; FPLC): about 30%; share present as monomer ([2]; FPLC, listed as A66R): 30%; Sephacryl (mL), elution peak position ([2]; monomer peak): 66.15 mL; Sephacryl (mL), elution peak position ([2]; tetramer peak): 45.50, mL |
| B6 | 50 | Tetramer | 45.09 mL | 5 | inferior to WT | To FT |  | recover rate by elution with acetic acid ([1]; Biotin-agarose, elution with acetic acid): recover rate: 95% |
| B7 | 30 | Tetramer | 46.49 mL | 0 |  | To FT | did not bind |  |
| B8 | 0 |  |  | 0 |  | To FT |  | binding to biotin-agarose [1]: bound to biotin-agarose; elution from biotin-agarose with an excess amount of biotin [1]: not eluted; Note (Biotin-agarose) [1]: not eluted |
| B9 | 80 |  |  | 0 |  | To FT | did not bind | Structure (identified by FPLC) ([2]; dimer peak): dimer,; share present as monomer ([2]; FPLC): 90%; Sephacryl (mL), elution peak position ([2]; dimer peak): 54.49, mL |
